In patent publication US5360895A, “Derivatized gold clusters and antibody-gold cluster conjugates” (priority 1992, dated 1994):

Columns and labels:
[1] = Thermal stability of gold clusters; format: physicochemical
melanoma cells = assay: Radioimmunoassay, cell binding of gold labeled F(ab')2 to melanoma cells (control); format: cell-based; conditions: 17-1A; in words
Experimental: (§1) Both of these methods were used to prepare F(ab')2 -Au11 conjugates using 17-1A mouse monoclonal antibody which is specific for human colorectal tumors. After preparation, this labeled antibody was tested to find if its immunoreactivity had been altered. A radioimmunoassay was performed using cell binding to cultured human colon carcinoma cells and to melanoma cells (the control).

[2] = test system: human colon carcinoma cells; assay: Radioimmunoassay, cell binding of gold labeled F(ab')2 to cultured human colon carcinoma cells; format: cell-based; conditions: 17-1A; in words
Experimental: as §1

melanoma cells (WM164) = assay: In vitro cell binding of 17-1A-Au11 conjugates, control melanoma (radioactivity of gold); conditions: for % bound to control cells (melanoma): percent of applied radioactive gold bound after incubation and washing, average ± s.d. of 2 samples
Experimental: (§5) The 17-1A Fab' fragment-(radioactive gold)-undecagold cluster conjugate was incubated in vitro with tumor cells (LS180- a cell culture of human colon carcinoma) and non tumor cells (WM164 - a cell culture of melanoma as control) and the radioactivity of the gold was used to assay binding.
(§6) bound to cells after incubation and washing.
(§7) entry is an average (+ s.d.) of 2 samples.

human colon carcinoma = assay: In vivo biodistribution of radiogold cluster 17-1A conjugates in nude mice bearing human tumors; conditions: 24 hr after injection; for blood, % of injected dose per gram of tissue / bone, % of injected dose per gram of tissue / gut, % of injected dose per gram of tissue / heart, % of injected dose per gram of tissue / kidneys, % of injected dose per gram of tissue / liver, % of injected dose per gram of tissue / lung, % of injected dose per gram of tissue / muscle, % of injected dose per gram of tissue / spleen, % of injected dose per gram of tissue / stomach, % of injected dose per gram of tissue / tumor, % of injected dose per gram of tissue: normalized to 25 g animals
Experimental: Nude mice bearing human colon carcinoma or melanoma tumors were injected with radioactive gold clusters conjugated to anti-tumor antibodies. Two antibodies were gold labeled, one (17-1A) against the human colon carcinoma and another non-relevant antibody, H2 4B5 anti-influenza. The non-relevant tumor (melanoma) and non-relevant gold conjugated antibody (H2 4B5) served as controls. A total of 53 mice were used. In order to assess the efficacy of using gold labeled Fab' versus whole IgG, both types of antibody were labeled and tested. In addition, two crosslinking arms between the gold cluster and antibody were used, one, as described in the preparation example, was N-methoxycarbonyl maleimide (NMCM), whereas the other was n-maleimidobenzoyl-N-hydroxysuccinimide ester (MBS), This was to test if a different covalent crosslinker between the gold cluster and antibody or antibody fragment yielded conjugates with different stabilities or body distributions in vivo.
In vivo biodistribution of radiogold cluster 17-1A conjugates. Data,
after injection is expressed in % of injected dose per gram of tissue.
Tumor to normal tissue ratios are given in parentheses. Three or four
sample were averaged; normalized to 25 g animals.

[3] = test system: human colon carcinoma cells (LS180); assay: In vitro cell binding of 17-1A-Au11 conjugates, human colon carcinoma (radioactivity of gold); conditions: for % bound to tumor cells (human colon carcinoma): percent of applied radioactive gold bound after incubation and washing, average ± s.d. of 2 samples
Experimental: as §5, §6, §7

[4] = test system: Human colon carcinoma cells (cell line LS180); assay: Silver enhanced staining of human colon carcinoma cells, light microscope; format: cell-based; conditions: approximately 45 minutes developer
Experimental: Human colon carcinoma cells (cell line LS180) were grown in tissue culture media. The cells were harvested with a brief trypsin treatment and centrifuged. They were then resuspended in phosphate buffered saline with 5% IgG free horse serum.
(§2) Assuming each call has approx. 10^6 antibody binding sites, a ten fold molar excess over this of undecagold cluster-labeled 17-1A monoclonal antibody was applied. Cells were incubated at room temperature for one hour on a wrist shaker device. The cells were then centrifuged at 1100 rpm for 5 minutes and the supernatent discarded. Additional buffer was added to resuspend the cells and after 3 minutes they were centrifuged again. Three of these washes were done. As a control, melanoma cells (cell line WM 164) were also prepared in a similar fashion. Cells were concentrated onto glass microscope slides using a Cytospin device. […] UV exposure for 5 minutes prior to development enhanced this color.

[5] = test system: melanoma cells (cell line WM 164); assay: Silver enhanced staining of control melanoma cells, light microscope; format: cell-based; conditions: approximately 45 minutes developer
Experimental: as §2

control melanoma = assay: In vitro test of Fab'-Au11 with control melanoma, radiolabeled second antibody; format: cell-based; conditions: preliminary in vitro testing, 17-1A
Experimental: (§3) The antibody used is "17-1A", commercially available from Centocor, Inc. These antibody-cluster conjugates were also assayed by electron microscopy, high pressure liquid chromatography, and spectroscopy and appeared to follow the normal course of results indicated in Examples 4 and 5. The number of gold clusters bound to each Fab' in this example was 0.7-1.0.
(§4) The in vitro test involved incubating the Fab'-Au11 with either colorectal carcinoma cells or a control melanoma for one hour, centrifugation to isolate the cell-bound antibody, and assay of the bound antibody with a second antibody [to F(ab')2 ] which was itself radiolabeled with iodine. A titer curve was produced.

[6] = test system: colorectal carcinoma cells; assay: In vitro test of Fab'-Au11 with colorectal carcinoma cells, radiolabeled second antibody; format: cell-based, human
Experimental: as §3, §4

Molecule | % bound to control cells (melanoma) (melanoma cells (WM164)) | Tumor to normal tissue ratio, blood (human colon carcinoma) | Tumor to normal tissue ratio, bone (human colon carcinoma) | Tumor to normal tissue ratio, gut (human colon carcinoma) | Tumor to normal tissue ratio, heart (human colon carcinoma) | Tumor to normal tissue ratio, kidneys (human colon carcinoma) | Tumor to normal tissue ratio, liver (human colon carcinoma) | Tumor to normal tissue ratio, lung (human colon carcinoma) | Tumor to normal tissue ratio, muscle (human colon carcinoma) | Tumor to normal tissue ratio, spleen (human colon carcinoma) | Tumor to normal tissue ratio, stomach (human colon carcinoma) | blood, % of injected dose per gram of tissue (human colon carcinoma) | bone, % of injected dose per gram of tissue (human colon carcinoma) | gut, % of injected dose per gram of tissue (human colon carcinoma) | heart, % of injected dose per gram of tissue (human colon carcinoma) | kidneys, % of injected dose per gram of tissue (human colon carcinoma) | liver, % of injected dose per gram of tissue (human colon carcinoma) | lung, % of injected dose per gram of tissue (human colon carcinoma) | muscle, % of injected dose per gram of tissue (human colon carcinoma) | spleen, % of injected dose per gram of tissue (human colon carcinoma) | other results
Au55 [P(PhCONHCH3)3 ]11 P(PhCONHCH3)2 [derivatized Au55 cluster, Au55 [P(PhCONHCH3)3 ]11 P(PhCONHCH3)2 [PhCONH(CH2)3 N(CO)2 (CH)2 ]] |  |  |  |  |  |  |  |  |  |  |  |  |  |  |  |  |  |  |  |  | temperature above which the cluster deteriorates rapidly [1]: above 70 °C
F(ab')2 -Au11: F(ab')2 -Au11 conjugate of 17-1A mouse monoclonal antibody specific for human colorectal tumors (conjugate, chains of the INN, looked up, F(ab')2 undecagold cluster label, F(ab')2 -Au11 conjugate of 17-1A mouse monoclonal antibody specific for human colorectal tumors) VH: QVQLQQSGAELVRPGTSVKVSCKASGYAFTNYLIEWVKQRPGQGLEWIGVINPGSGGTNYNEKFKGKATLTADKSSSTAYMQLSSLTSDDSAVYFCARDGPWFAYWGQGTLVTVSA VL: NIVMTQSPKSMSMSVGERVTLTCKASENVVTYVSWYQQKPEQSPKLLIYGASNRYTGVPDRFTGSGSATDFTLTISSVQAEDLADYHCGQGYSYPYTFGGGTKLEIK | 0.30 ± 0.03% | 1.5 | 3.5 | 5.3 | 3.4 | 0.1 | 0.8 | 1.8 | 8.6 | 1.3 | 9.1 | 5.6 ± 0.4 % of injected dose per gram of tissue | 2.4 ± 0.2 % of injected dose per gram of tissue | 1.6 ± 0.2 % of injected dose per gram of tissue | 3.2 ± 0.4 % of injected dose per gram of tissue | 117.0 ± 20 % of injected dose per gram of tissue | 10.5 ± 0.4 % of injected dose per gram of tissue | 4.6 ± 0.1 % of injected dose per gram of tissue | 0.98 ± 0.08 % of injected dose per gram of tissue | 6.4 ± 0.8 % of injected dose per gram of tissue | binding to the control cells (melanoma cells): no binding to the control cells; binding to the tumor cells versus native unlabeled F(ab')2 [2]: virtually identical binding to the tumor cells as did native unlabeled F(ab')2; radioactive gold on the non-tumor cells (melanoma cells (WM164); WM164, text statement on Table 1, "or background for F(ab')2"): < 0.4%; stomach, % of injected dose per gram of tissue (human colon carcinoma): 0.93 ± 0.19 % of injected dose per gram of tissue; tumor, % of injected dose per gram of tissue (human colon carcinoma): 8.4 ± 0.6 % of injected dose per gram of tissue; % bound to tumor cells (human colon carcinoma) [3]: 16.13 ± 0.02%
undecagold cluster-labeled 17-1A monoclonal antibody: undecagold cluster-labeled 17-1A monoclonal antibody (conjugate, chains of the INN, looked up, undecagold cluster label) VH: QVQLQQSGAELVRPGTSVKVSCKASGYAFTNYLIEWVKQRPGQGLEWIGVINPGSGGTNYNEKFKGKATLTADKSSSTAYMQLSSLTSDDSAVYFCARDGPWFAYWGQGTLVTVSA VL: NIVMTQSPKSMSMSVGERVTLTCKASENVVTYVSWYQQKPEQSPKLLIYGASNRYTGVPDRFTGSGSATDFTLTISSVQAEDLADYHCGQGYSYPYTFGGGTKLEIK |  |  |  |  |  |  |  |  |  |  |  |  |  |  |  |  |  |  |  |  | staining of cells after silver developer [4]: became brown in color, easily identifiable in the light microscope; staining of control cells after silver developer [5]: clear and showed virtually no staining
Fab'-Au11: 17-1A monoclonal antibody Fab' fragment covalently coupled to the undecagold cluster (radioactive gold in Tables 1 and 2) (conjugate, chains of the INN, looked up, Fab' undecagold cluster label) VH: QVQLQQSGAELVRPGTSVKVSCKASGYAFTNYLIEWVKQRPGQGLEWIGVINPGSGGTNYNEKFKGKATLTADKSSSTAYMQLSSLTSDDSAVYFCARDGPWFAYWGQGTLVTVSA VL: NIVMTQSPKSMSMSVGERVTLTCKASENVVTYVSWYQQKPEQSPKLLIYGASNRYTGVPDRFTGSGSATDFTLTISSVQAEDLADYHCGQGYSYPYTFGGGTKLEIK | 1.92 ± 0.17% | 1.9 | 6.6 | 5. | 3.7 | 0.06 | 1.0 | 2.5 | 13.2 | 2.3 | 11.2 | 3.4 ± 0.3 % of injected dose per gram of tissue | 0.97 ± 0.02 % of injected dose per gram of tissue | 1.3 ± 0.1 % of injected dose per gram of tissue | 1.7 ± 0.1 % of injected dose per gram of tissue | 103.0 ± 32 % of injected dose per gram of tissue | 5.6 ± 0.5 % of injected dose per gram of tissue | 2.5 ± 0.04 % of injected dose per gram of tissue | 0.48 ± 0.06 % of injected dose per gram of tissue | 2.8 ± 0.4 % of injected dose per gram of tissue | binding to a control melanoma (control melanoma): does not bind to a control melanoma; antibody activity and specificity ([6]; one hour incubation, titer curve): antibody activity and specificity were preserved; specificity for the tumor ([6]; preliminary in vitro testing, 17-1A): retains its specificity for the tumor; stomach, % of injected dose per gram of tissue (human colon carcinoma): 0.57 ± 0.14 % of injected dose per gram of tissue; tumor, % of injected dose per gram of tissue (human colon carcinoma): 6.4 ± 1.1 % of injected dose per gram of tissue; localization of radioactive gold on tumor cells ([3]; LS180 cells, in words): localized completely on the tumor cells; % bound to tumor cells (human colon carcinoma) [3]: 7.80 ± 0.52%
IgG-Au11: 17-1A whole IgG labeled with monomaleimidopropyl undecagold cluster, about 2 Au clusters per IgG (conjugate, chains of the INN, looked up, undecagold cluster label, 17-1A whole IgG labeled with monomaleimidopropyl undecagold cluster, about 2 Au clusters per IgG) VH: QVQLQQSGAELVRPGTSVKVSCKASGYAFTNYLIEWVKQRPGQGLEWIGVINPGSGGTNYNEKFKGKATLTADKSSSTAYMQLSSLTSDDSAVYFCARDGPWFAYWGQGTLVTVSA VL: NIVMTQSPKSMSMSVGERVTLTCKASENVVTYVSWYQQKPEQSPKLLIYGASNRYTGVPDRFTGSGSATDFTLTISSVQAEDLADYHCGQGYSYPYTFGGGTKLEIK | 0.77 ± 0.08% | 2.5 | 3.6 | 7.2 | 3.1 | 0.5 | 1.7 | 2.3 | 10.0 | 0.8 | 11.6 | 3.2 ± 0.6 % of injected dose per gram of tissue | 2.2 ± 0.3 % of injected dose per gram of tissue | 1.1 ± 0.3 % of injected dose per gram of tissue | 2.6 ± 0.4 % of injected dose per gram of tissue | 17.1 ± 3.1 % of injected dose per gram of tissue | 4.6 ± 0.7 % of injected dose per gram of tissue | 3.4 ± 0.9 % of injected dose per gram of tissue | 0.80 ± 0.23 % of injected dose per gram of tissue | 9.5 ± 0.3 % of injected dose per gram of tissue | stomach, % of injected dose per gram of tissue (human colon carcinoma): 0.69 ± 0.20 % of injected dose per gram of tissue; tumor, % of injected dose per gram of tissue (human colon carcinoma): 8.0 ± 3.2 % of injected dose per gram of tissue; % bound to tumor cells (human colon carcinoma) [3]: 14.32 ± 0.92%
